Experimental data from paper PMC3629905 (Biochemistry, 2013).

Experiments:
[1] = molecular target: GKL (quorum-quenching lactonase from Geobacillus kaustophilus) (Geobacillus kaustophilus, UniProt Q5KZU5, E101G/R230C/D266N)
[2] = test system: CCCCCC(=O)CC(=O)N[C@H]1CCOC1=O; assay: purified protein; conditions: pH 8.3; 37.0 °C
[3] = test system: CCCC(=O)CC(=O)N[C@H]1CCOC1=O; assay: purified protein; conditions: pH 8.3; 37.0 °C

Row | Molecule | X-ray crystal structure, 2.2 Å [1] | Km [2] [mM] | kcat/Km [2] [M⁻¹ s⁻¹] | Km [3] [mM] | kcat/Km [3] [M⁻¹ s⁻¹]
1 | CCCC(=O)NC1CCOC1=O (racemic) [C4-HSL, N-butyryl-L-homoserine lactone] | its catalytically inactive variant E101G/R230C/D266N with the quorum-molecule C4-HSL bound in the active site | – | – | – | –
2 | GKL (quorum-quenching lactonase from Geobacillus kaustophilus) (Geobacillus kaustophilus HTA426) | – | 5.5 ± 2.1 | 38 | – | –
3 | GKL (quorum-quenching lactonase from Geobacillus kaustophilus) (Geobacillus kaustophilus HTA426; E101G/R230C) | – | 3.0 ± 0.4 | 700 | 22 ± 12 | 50
4 | GKL (quorum-quenching lactonase from Geobacillus kaustophilus) (Geobacillus kaustophilus HTA426; E101N) | – | 4.0 ± 3.2 | 53 | – | –
